From paper PMC8465894

Assays:
[1] = rescue of surface CD55 in GPAA1-KO cells, flow cytometry; settings: glycan lost; control: wild-type GPAA1
[2] = rescue of surface CD55 in PIGS-KO cells, flow cytometry; settings: glycan lost; control: wild-type PIGS
[3] = rescue of surface CD55 in PIGT-KO cells, flow cytometry; settings: glycan lost; control: wild-type PIGT

Protein	enzymatic_activity [2]	enzymatic_activity [3]	further results
GPAA1: N203Q (protein) parent chain: MGLLSDPVRRRALARLVLRLNAPLCVLSYVAGIAWFLALVFPPLTQRTYMSENAMGSTMVEEQFAGGDRARAFARDFAAHRKKSGALPVAWLERTMRSVGLEVYTQSFSRKLPFPDETHERYMVSGTNVYGILRAPRAASTESLVLTVPCGSDSTNSQAVGLLLALAAHFRGQIYWAKDIVFLVTEHDLLGTEAWLEAYHDVNVTGMQSSPLQGRAGAIQAAVALELSSDVVTSLDVAVEGLNGQLPNLDLLNLFQTFCQKGGLLCTLQGKLQPEDWTSLDGPLQGLQTLLLMVLRQASGRPHGSHGLFLRYRVEALTLRGINSFRQYKYDLVAVGKALEGMFRKLNHLLERLHQSFFLYLLPGLSRFVSIGLYMPAVGFLLLVLGLKALELWMQLHEAGMGLEEPGGAPGPSVPLPPSQGVGLASLVAPLLISQAMGLALYVLPVLGQHVATQHFPVAEAEAVVLTLLAIYAAGLALPHNTHRVVSTQAPDRGWMALKLVALIYLALQLGCIALTNFSLGFLLATTMVPTAALAKPHGPRTLYAALLVLTSPAATLLGSLFLWRELQEAPLSLAEGWQLFLAALAQGVLEHHTYGALLFPLLSLGLYPCWLLFWNVLFWK			enzymatic_activity [1]: no change
PIGS: N267Q (protein) parent chain: MAAAGAAATHLEVARGKRAALFFAAVAIVLGLPLWWKTTETYRASLPYSQISGLNALQLRLMVPVTVVFTRESVPLDDQEKLPFTVVHEREIPLKYKMKIKCRFQKAYRRALDHEEEALSSGSVQEAEAMLDEPQEQAEGSLTVYVISEHSSLLPQDMMSYIGPKRTAVVRGIMHREAFNIIGRRIVQVAQAMSLTEDVLAAALADHLPEDKWSAEKRRPLKSSLGYEITFSLLNPDPKSHDVYWDIEGAVRRYVQPFLNALGAAGNFSVDSQILYYAMLGVNPRFDSASSSYYLDMHSLPHVINPVESRLGSSAASLYPVLNFLLYVPELAHSPLYIQDKDGAPVATNAFHSPRWGGIMVYNVDSKTYNASVLPVRVEVDMVRVMEVFLAQLRLLFGIAQPQLPPKCLLSGPTSEGLMTWELDRLLWARSVENLATATTTLTSLAQLLGKISNIVIKDDVASEVYKAVAAVQKSAEELASGHLASAFVASQEAVTSSELAFFDPSLLHLLYFPDDQKFAIYIPLFLPMAVPILLSLVKIFLETRKSWRKPEKTD	no change		
PIGS: N370Q (protein) parent chain: MAAAGAAATHLEVARGKRAALFFAAVAIVLGLPLWWKTTETYRASLPYSQISGLNALQLRLMVPVTVVFTRESVPLDDQEKLPFTVVHEREIPLKYKMKIKCRFQKAYRRALDHEEEALSSGSVQEAEAMLDEPQEQAEGSLTVYVISEHSSLLPQDMMSYIGPKRTAVVRGIMHREAFNIIGRRIVQVAQAMSLTEDVLAAALADHLPEDKWSAEKRRPLKSSLGYEITFSLLNPDPKSHDVYWDIEGAVRRYVQPFLNALGAAGNFSVDSQILYYAMLGVNPRFDSASSSYYLDMHSLPHVINPVESRLGSSAASLYPVLNFLLYVPELAHSPLYIQDKDGAPVATNAFHSPRWGGIMVYNVDSKTYNASVLPVRVEVDMVRVMEVFLAQLRLLFGIAQPQLPPKCLLSGPTSEGLMTWELDRLLWARSVENLATATTTLTSLAQLLGKISNIVIKDDVASEVYKAVAAVQKSAEELASGHLASAFVASQEAVTSSELAFFDPSLLHLLYFPDDQKFAIYIPLFLPMAVPILLSLVKIFLETRKSWRKPEKTD	no change		
PIGT: N164Q (protein) parent chain: MAAAMPLALLVLLLLGPGGWCLAEPPRDSLREELVITPLPSGDVAATFQFRTRWDSELQREGVSHYRLFPKALGQLISKYSLRELHLSFTQGFWRTRYWGPPFLQAPSGAELWVWFQDTVTDVDKSWKELSNVLSGIFCASLNFIDSTNTVTPTASFKPLGLANDTDHYFLRYAVLPREVVCTENLTPWKKLLPCSSKAGLSVLLKADRLFHTSYHSQAVHIRPVCRNARCTSISWELRQTLSVVFDAFITGQGKKDWSLFRMFSRTLTEPCPLASESRVYVDITTYNQDNETLEVHPPPTTTYQDVILGTRKTYAIYDLLDTAMINNSRNLNIQLKWKRPPENEAPPVPFLHAQRYVSGYGLQKGELSTLLYNTHPYRAFPVLLLDTVPWYLRLYVHTLTITSKGKENKPSYIHYQPAQDRLQPHLLEMLIQLPANSVTKVSIQFERALLKWTEYTPDPNHGFYVSPSVLSALVPSMVAAKPVDWEESPLFNSLFPVSDGSNYFVRLYTEPLLVNLPTPDFSMPYNVICLTCTVVAVCYGSFYNLLTRTFHIEEPRTGGLAKRLANLIRRARGVPPL		no change	
PIGT: N327Q (protein) parent chain: MAAAMPLALLVLLLLGPGGWCLAEPPRDSLREELVITPLPSGDVAATFQFRTRWDSELQREGVSHYRLFPKALGQLISKYSLRELHLSFTQGFWRTRYWGPPFLQAPSGAELWVWFQDTVTDVDKSWKELSNVLSGIFCASLNFIDSTNTVTPTASFKPLGLANDTDHYFLRYAVLPREVVCTENLTPWKKLLPCSSKAGLSVLLKADRLFHTSYHSQAVHIRPVCRNARCTSISWELRQTLSVVFDAFITGQGKKDWSLFRMFSRTLTEPCPLASESRVYVDITTYNQDNETLEVHPPPTTTYQDVILGTRKTYAIYDLLDTAMINNSRNLNIQLKWKRPPENEAPPVPFLHAQRYVSGYGLQKGELSTLLYNTHPYRAFPVLLLDTVPWYLRLYVHTLTITSKGKENKPSYIHYQPAQDRLQPHLLEMLIQLPANSVTKVSIQFERALLKWTEYTPDPNHGFYVSPSVLSALVPSMVAAKPVDWEESPLFNSLFPVSDGSNYFVRLYTEPLLVNLPTPDFSMPYNVICLTCTVVAVCYGSFYNLLTRTFHIEEPRTGGLAKRLANLIRRARGVPPL		no change	
PIGT: N291Q (protein) parent chain: MAAAMPLALLVLLLLGPGGWCLAEPPRDSLREELVITPLPSGDVAATFQFRTRWDSELQREGVSHYRLFPKALGQLISKYSLRELHLSFTQGFWRTRYWGPPFLQAPSGAELWVWFQDTVTDVDKSWKELSNVLSGIFCASLNFIDSTNTVTPTASFKPLGLANDTDHYFLRYAVLPREVVCTENLTPWKKLLPCSSKAGLSVLLKADRLFHTSYHSQAVHIRPVCRNARCTSISWELRQTLSVVFDAFITGQGKKDWSLFRMFSRTLTEPCPLASESRVYVDITTYNQDNETLEVHPPPTTTYQDVILGTRKTYAIYDLLDTAMINNSRNLNIQLKWKRPPENEAPPVPFLHAQRYVSGYGLQKGELSTLLYNTHPYRAFPVLLLDTVPWYLRLYVHTLTITSKGKENKPSYIHYQPAQDRLQPHLLEMLIQLPANSVTKVSIQFERALLKWTEYTPDPNHGFYVSPSVLSALVPSMVAAKPVDWEESPLFNSLFPVSDGSNYFVRLYTEPLLVNLPTPDFSMPYNVICLTCTVVAVCYGSFYNLLTRTFHIEEPRTGGLAKRLANLIRRARGVPPL		no change	
